Experimental data: patent US20260297170 (published 2026)

Molecular target: rFGF2 (human, UniProt P09038)
Experiment: SPR

Chain of rFGF2 (P09038 143-288): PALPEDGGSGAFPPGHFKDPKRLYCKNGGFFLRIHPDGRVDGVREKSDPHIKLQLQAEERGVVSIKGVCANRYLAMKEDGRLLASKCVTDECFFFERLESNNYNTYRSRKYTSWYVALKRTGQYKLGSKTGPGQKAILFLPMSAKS

Row | Kd [nM] | Binder
1 | 0.413 | Murine 3F12E7 (antibody, V domains shown) VH: GELQESGPELVKPGASVKISCKASGYSFTGYYMNWVKHSPEKSLEWIGEINPSTGGTSYNQKFKAKATLTVDKSSTTAYMQLKGLTSEDSAVYYCASGGYYEGFDYWGQGTTVTVSS VL: DIELTQSPASLSASVGETVTGNIYSYLAWYQQKQGKSPQLLVYDAKTLADGVPSRFTGSGSGTQFSLKINSLQPEDFGSYYCQHFWNTPRTFGGGTKLEIK
2 | 17 | 85L117H (antibody, V domains shown) VH: QVQLVQSGAELKRPGSSVKVSCRASGDTFKNYAITWVRQAPGQGLEWVGGIDPLVGVPNYTHRFQGRVTITADEPTSTTYMEFRDLTSDDTAVYYCARGVRDQHWSYFDSWGQGTLVTVSS VL: QSVLTQPPSASGTPGQTVNISCSGATSNIGGGSVNWYQQLPGAAPRLLIHSDNERASGVPDRFSGSKSGTSASLAISGLQSEDEADYFCASWDDSLDGHVVFGGGTKVTVL
3 | 9.1 | 62K98H (antibody, V domains shown) VH: QITLKESGPTLVKPTQTLTLTCTFSGFSLSTSGVGVGWIRQPPGEALEWLAVIHWNEANYYSPYLRSRLTITKDTSKNQMVLTVTNMDPVDTATYYCARGANSDSSGRLDAFDIWGQGTMVTVSS VL: DVVMTQSPLSLPVTLGQPASISCRSSQSLIYSDGNTRLYWFHQRPGQSPRRLIYGVSNRDSGVPDRFSGSGSGTDFTLKISRVEAEDVGVYYCMQSTHWPHTFGQGTKLEIK
